Laboratory results as given in US6365158.

Experiments:
[1] = target: Crotalus durissus terrificus (C.d.t.) venom; assay: ELISA, C.d.t. venom-coated wells, 1:625
[2] = target: Crotalus durissus terrificus (C.d.t.) venom; assay: ELISA, C.d.t. venom-coated wells, 1:5
[3] = target: Crotalus durissus terrificus (C.d.t.) venom; assay: ELISA, wells coated with 5 µg/ml C.d.t. venom, 1:5
[4] = target: Crotalus durissus terrificus (C.d.t.) venom; assay: ELISA, wells coated with 5 µg/ml C.d.t. venom, 1:3125
[5] = target: Crotalus durissus terrificus (C.d.t.) venom; assay: ELISA, wells coated with 5 µg/ml C.d.t. venom, 1:25
[6] = target: Crotalus durissus terrificus (C.d.t.) venom; assay: ELISA, C.d.t. venom-coated wells, IgY 1:312,500
[7] = target: Crotalus durissus terrificus (C.d.t.) venom; assay: ELISA, wells coated with 5 µg/ml C.d.t. venom, 1:625
[8] = target: Crotalus durissus terrificus (C.d.t.) venom; assay: ELISA, C.d.t. venom-coated wells, 1:125
[9] = target: Crotalus durissus terrificus (C.d.t.) venom; assay: ELISA, wells coated with 5 µg/ml C.d.t. venom, undiluted
[10] = target: Crotalus durissus terrificus (C.d.t.) venom; assay: ELISA, wells coated with 5 µg/ml C.d.t. venom, 1:125
[11] = target: Crotalus durissus terrificus (C.d.t.) venom; assay: ELISA, C.d.t. venom-coated wells, 1:3125
[12] = target: Crotalus durissus terrificus (C.d.t.) venom; assay: ELISA, C.d.t. venom-coated wells, 1:25
[13] = target: Crotalus durissus terrificus (C.d.t.) venom; assay: ELISA, C.d.t. venom-coated wells, IgY 1:62,500

Work on preimmune IgY (antibody) yielded an absorbance (ELISA) (absorbance at 412 nm) [1] of under 0, an absorbance (ELISA) (absorbance at 412 nm) [2] of under 0 and an absorbance (ELISA) (absorbance at 412 nm) [3] of under 0. It also gave an absorbance (ELISA) (absorbance at 412 nm) [4] of 0.002, an absorbance (ELISA) (absorbance at 412 nm) [5] of 0 and an absorbance (ELISA) (absorbance at 412 nm) [6] of 0.01. It also gave an absorbance (ELISA) (absorbance at 412 nm) [7] of 0, an absorbance (ELISA) (absorbance at 412 nm) [8] of under 0 and an absorbance (ELISA) (absorbance at 412 nm) [9] of 0.003. The absorbance (ELISA) (absorbance at 412 nm) [10] was 0.003, the absorbance (ELISA) (absorbance at 412 nm) [11] was under 0 and the absorbance (ELISA) (absorbance at 412 nm) [12] was 0.016. It also gave an absorbance (ELISA) (absorbance at 412 nm) [13] of 0.001.
